Experimental data: paper PMC3355120, “LGR6 Is a High Affinity Receptor of R-Spondins and Potentially Functions as a Tumor Suppressor” (PLoS ONE, 2012)

T1: human LGR6 (leucine-rich repeat containing, G protein-coupled receptor 6) with a Flag-tag at the N-terminus, … (human, UniProt Q9HBX8-3 25-967)
T1 sequence (looked up): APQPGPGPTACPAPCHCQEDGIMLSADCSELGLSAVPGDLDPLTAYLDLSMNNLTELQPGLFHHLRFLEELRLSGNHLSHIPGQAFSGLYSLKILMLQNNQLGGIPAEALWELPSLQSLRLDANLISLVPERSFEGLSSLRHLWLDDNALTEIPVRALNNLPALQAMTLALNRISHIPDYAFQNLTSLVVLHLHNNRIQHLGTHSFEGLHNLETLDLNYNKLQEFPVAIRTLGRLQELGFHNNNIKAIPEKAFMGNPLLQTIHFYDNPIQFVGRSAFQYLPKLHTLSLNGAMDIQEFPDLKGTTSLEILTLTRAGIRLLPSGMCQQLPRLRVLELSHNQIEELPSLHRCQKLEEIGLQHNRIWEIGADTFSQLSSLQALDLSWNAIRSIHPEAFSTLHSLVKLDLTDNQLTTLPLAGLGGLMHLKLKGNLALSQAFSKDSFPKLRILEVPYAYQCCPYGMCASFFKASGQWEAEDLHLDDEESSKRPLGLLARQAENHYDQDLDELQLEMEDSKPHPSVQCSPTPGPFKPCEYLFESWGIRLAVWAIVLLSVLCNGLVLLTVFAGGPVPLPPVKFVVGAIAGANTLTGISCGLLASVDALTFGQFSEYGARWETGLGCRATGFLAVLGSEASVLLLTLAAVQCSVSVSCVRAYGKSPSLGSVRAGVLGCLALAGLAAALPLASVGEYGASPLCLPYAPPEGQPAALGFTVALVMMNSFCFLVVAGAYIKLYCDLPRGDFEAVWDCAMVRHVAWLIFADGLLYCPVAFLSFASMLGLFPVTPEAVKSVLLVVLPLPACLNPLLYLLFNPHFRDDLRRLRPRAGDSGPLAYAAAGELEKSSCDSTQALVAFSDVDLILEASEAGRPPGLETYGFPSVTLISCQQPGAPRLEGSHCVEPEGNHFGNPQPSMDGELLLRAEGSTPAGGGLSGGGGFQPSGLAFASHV


How the values were obtained:
[1] = biological target: T1, human LGR6 (leucine-rich repeat …); assay: cell-based or functional assay
[2] = biological target: T1, human LGR6 (leucine-rich repeat …); assay: whole-cell-based competition binding assay; HEK293 cells stably expressing Flag-LGR6 incubated with mRSPO1-Fc plus serial dilutions of purified recombinant RSPO1–4; maximum specific binding is the difference with and without mRSPO1-Fc; conditions: one partner purified

| Binder | Super TOPflash β-catenin reporter in HEK293T cells transfected with LGR6 or vector, serial dilutions of RSPO1 with Wnt3a CM: gain in potency of RSPO1 [1] [fold] | IC50 [2] [nM] |
| --- | --- | --- |
| purified recombinant R-spondin 1 (ligand, UniProt Q2MKA7 21-263, looked up, R-spondin 1 (RSPO1); also called RSPO1; source: purified recombinant) SRGIKGKRQRRISAEGSQACAKGCELCSEVNGCLKCSPKLFILLERNDIRQVGVCLPSCPPGYFDARNPDMNKCIKCKIEHCEACFSHNFCTKCKEGLYLHKGRCYPACPEGSSAANGTMECSSPAQCEMSEWSPWGPCSKKQQLCGFRRGSEERTRRVLHAPVGDHAACSDTKETRRCTVRRVPCPEGQKRRKGGQGRRENANRNLARKESKEAGAGSRRRKGQQQQQQQGTVGPLTSAGPA | ~30 | 3.3 |
| purified recombinant R-spondin 2 (ligand, UniProt Q6UXX9 22-243, looked up, R-spondin 2 (RSPO2); also called RSPO2; source: purified recombinant) QGNRWRRSKRASYVSNPICKGCLSCSKDNGCSRCQQKLFFFLRREGMRQYGECLHSCPSGYYGHRAPDMNRCARCRIENCDSCFSKDFCTKCKVGFYLHRGRCFDECPDGFAPLEETMECVEGCEVGHWSEWGTCSRNNRTCGFKWGLETRTRQIVKKPVKDTILCPTIAESRRCKMTMRHCPGGKRTPKAKEKRNKKKKRKLIERAQEQHSVFLATDRANQ | – | 0.5 |
| purified recombinant R-spondin 3 (ligand, UniProt Q9BXY4 22-272, looked up, R-spondin 3 (RSPO3); also called RSPO3; source: purified recombinant) QNASRGRRQRRMHPNVSQGCQGGCATCSDYNGCLSCKPRLFFALERIGMKQIGVCLSSCPSGYYGTRYPDINKCTKCKADCDTCFNKNFCTKCKSGFYLHLGKCLDNCPEGLEANNHTMECVSIVHCEVSEWNPWSPCTKKGKTCGFKRGTETRVREIIQHPSAKGNLCPPTNETRKCTVQRKKCQKGERGKKGRERKRKKPNKGESKEAIPDSKSLESSKEIPEQRENKQQQKKRKVQDKQKSVSVSTVH | – | 1.7 |
| purified recombinant R-spondin 4 (ligand, UniProt Q2I0M5 20-234, looked up, R-spondin 4 (RSPO4); also called RSPO4; source: purified recombinant) LNRRKKQVGTGLGGNCTGCIICSEENGCSTCQQRLFLFIRREGIRQYGKCLHDCPPGYFGIRGQEVNRCKKCGATCESCFSQDFCIRCKRQFYLYKGKCLPTCPPGTLAHQNTRECQGECELGPWGGWSPCTHNGKTCGSAWGLESRVREAGRAGHEEAATCQVLSESRKCPIQRPCPGERSPGQKKGRKDRRPRKDRKLDRRLDVRPRQPGLQP | – | 7 |
